Laboratory results taken from the RNAGym collection of RNA variant scans (doi:10.1073/pnas.2313332121).

B1: TPR t1 (parent)
chain: GACCAAUCUGCCCUCAGAGCUCGAGAACAUCUUCGGAUGCAGAGGAGGCAGGCUUCGGUGGCGCGAUAGCGCCAACGUCCUCAACCUCCAAUGCAUCCCACCACAUGAUGAUGCCUGAAGAGCCUUGGUUUUUUG

Variants of: B1
Assay: polymerase ribozyme fitness, log enrichment relative to wild type (log ratio); higher = more active; in vitro selection for triplet polymerase activity
Procedure, shortened: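 In triplicate, a single round of in vitro selection was run on each mutant library, PCR-built and transcribed, covering one subunit of a heterodimeric triplet polymerase ribozyme. Frozen incubation at −7 °C followed annealing with a biotinylated primer, partner subunit and triplets, and extended constructs were then gel-excised, streptavidin-captured and taken through RT-PCR. Fitness is the logarithm of genotype enrichment over wild-type enrichment, from inverse-variance-weighted replicate averages of Illumina-sequenced inputs and outputs. […] only genotypes with ≥10 input reads and ≥1 read per output were kept.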

Point of comparison: GACCAAUCUGCCCUCAGAGCUCGAGAACAUCUUCGGAUGCAGAGGAGGCAGGAUUCGGUGGCGCGAUAGCGCCAACGUCCUCAACCUCCAAUGCAUCCCACCACAUGAUGAGGCCUGAAGAGCCUUGGUUUUUUG, “polymerase ribozyme fitness (log ratio)” value -0.496. Against it:
- GACCAAUCUGCCCUCAGAGCUCGAGAACAUCUUCGGAUGCAGAGGAGGCAGGAUUCGGUGGCGCGAUAGCGCCAACGUCCUCAACCUCCAAUACAUCCCACCACAUGAUGAUGCCUGAAGAGCCUUGGUUUUUUG — lower, -0.768
- GACCAAUCUGCCCUCAGAGCUCGAGAACAUCUUCGGAUGCAGAGGAGGCAGGAUUCGGUGGCGCGAUAUCGCCAACGUCCUCAACCUCCAAUGCAUCCCACCACUUGAUGAUGCCUGAAGAGCCUUGGUUUUUUG — higher, -0.0597
- GACCAAUCUGCCCUCAGAGCUCGAGAACAUCUUCGGAUGCAGAGGAGGCAGGAUUCGGUAGCGCGAUAGCGCCAACGUCCUCAACCUCCAAUGCAUCCCACCACAUGAUGAUGCCUGAAGAGCCUUGGUUUUAUG — lower, -1.16
- GACCAAUCUGCCCUCAGAGCUCGAGAACAUCUUCGGAUGCAGAGGAGGCAGGAUUCGGUGGCGCGAUAGCGCCAACGCCCUCAACCUCCAAUGCAUCCCACCACAUGAUGAUGCCUGAAGAGCCUUGGUUUUUUG — within 0.2 log units, -0.332
- GACCAAUCUGCCCUCAGAGCUCGAGAACAUCUUCGGAUGCAGAGGAGGCAGGAAUCGGUGGUGCGAUAGCGCCAACGUCAUCAACCUCCAAUGCAUCCCACCACAUGAUGAUGACUGAAGAGCGAUGGUUUUUUG — lower, -6.53
- GACCAAUCUGCCCUCAGAGCUCGAGAACAUCUUCGGAUGCAGAGGAGGCAGGGUUAGGUGGCGCGAUAGCGCCAACGUCCUCAACCUCCAAUGCAUCCCACCACAUGAUGAUGCCUGAAGAGCCUUGGUUUUUUG — higher, -0.204
- GACCAAUCUGCCCUCAGAGCUCGAGAACAUCUUCGGAUGCAGAGGAGGCAGGGUUGGGUGGCGCGAUAGCGCCAACGUCCUCAACCUCCAAUGCAUCCCACCACAUGAUGAUGCCUGAAGAGCCUUGGUUUUUUG — within 0.2 log units, -0.593
- GACCAAUCUGCCCUCAGAGCUCGAGAACAUCUUCGGAUGCAGAGGAGGCAGGAGUCGGUGGCGCGAUAGUGCCAACGUCCUCAACUUCGAAUGCAUCCCACCACAUGAUGAUGCCUGAAGCGCCAUGGUUUUUUG — lower, -2
- GACCAAUCUGCCCUCAGAGCUCGAGAACAUCUUCGGAUGCAGAGGAGGCAGGAUUCGGUGGCGCGAUAGCGCCAACGUCCUCAACCUCCAAUGCAUCCCACCACAUGAUGAUGCCUGAAGAGCCUUGGUAUUUUG — higher, 0.226
- GACCAAUCUGCCCUCAGAGCUCGAGAACAUCUUCGGAUGCAGAGGAGGCAGGAUUCGGUGGCGCGAUAGCUCCAACGUCCUCAACCUCCAAUGCAUCCCACCACAUGAUGAUGCCUGAAGAGCCUUGCUUUUUUG — lower, -2.77
- GACCAAUCUGCCCUCAGAGCUCGAGAACAUCUUCGGAUGCAGAGGAGGCAGGAUUCGGUGGCGCGAUAGCUCCAACGUCCUCAACUUCCAAUGCAUCCCUCCACAUGAUUAUGCCUGAAGAGCCUUGGUUUUUUG — lower, -4.31
- GACCAAUCUGCCCUCAGAGCUCGAGAACAUCUUCGGAUGCAGAGGAGGCAGGAUUCGGUGGCGCGAUAGCACCAACGUCCUCAAACUCCAAUGCAUCCCACCACAUGAUGAUGCCUGAAGAGCCUUGGUUUUUUG — lower, -4.06
- GACCAAUCUGCCCUCAGAGCUCGAGAACAUCUUCGGAUGCAGAGGAGGCAGGAUUCGGUGACGCGAUAGCGCCAACGGCCUCAACCUCCAAUGCAUCCCACCACAUGAUGAUGCCUGAAGAGCCUUGGUUUUUUG — higher, 0.644
- GACCAAUCUGCCCUCAGAGCUCGAGAACAUCUUCGGAUGCAGAGGAGGCAGGAUUCGGUGGCGCGAUAGCGCCAACGGCCUAAACCUCCAAUGCAUCCCACCACAUGAUGAUGCCUGAAGAGCCUUGGUUUUUUG — higher, 0.638
- GACCAAUCUGCCCUCAGAGCUCGAGAACAUCUUCGGAUGCAGAGGAGGCAGGAUUCGGUGGCGCGAUAGCGCCAACGUCCUCAACCUCCAAUGCAUCCCACCACAUGAUGAUGCCUGAAGAGCCUUGGUUUUUUA — higher, 0.127
- GACCAAUCUGCCCUCAGAGCUCGAGAACAUCUUCGGAUGCAGAGGAGGCAGGAAUUGGUGGCGCGAUAGCGCCAACGUCCUCAACCUCCAAUGCAUCCCAUCACAUGAUGAUGCCUGAAGAGCCUUGGUUUUUUG — higher, 0.471
- GACCAAUCUGCCCUCAGAGCUCGAGAACAUCUUCGGAUGCAGAGGAGGCAGGAUUCGGUGGCGCGAUAACGCCAACGUCCUCAACCUCCAAUGCAUCCCACCACAUGAUGAUGCCUGAAGAGCAUUGGUUUUUUG — higher, -0.263
- GACCAAUCUGCCCUCAGAGCUCGAGAACAUCUUCGGAUGCAGAGGAGGCAGGAUUCGGUGGCUCGAUAGCGCCAACGUCCGCUACCUCCAAUGCAUCCCACCACAUGAUGAUGCCUGAACAGCCUUGGUUUUUUG — lower, -3.85
- GACCAAUCUGCCCUCAGAGCUCGAGAACAUCUUCGGAUGCAGAGGAGGCAGGAUUCGGUGACGCGAUAGCGCCAACGUACUCAACCUCCAAUGCAUCCCACCACAUGAUGAUGCCUGAAGAGCCUUGGUUUUUUG — lower, -0.911
- GACCAAUCUGCCCUCAGAGCUCGAGAACAUCUUCGGAUGCAGAGGAGGCAGGAUACGGUGGCGCGAUAGCGCCAACGUCCUCAACCUUUAAUGCAUCCCACCACAUGAUGAUGCCUGAAGAGCCUUGGUUUUUUG — within 0.2 log units, -0.643
